From US20200317768A1 (published 2020)

T1: human FcγRIIb extracellular domain with C-terminal His-tag (human, UniProt P31994 43-217)
T1 construct: also called human FcgRIIb
T1 sequence: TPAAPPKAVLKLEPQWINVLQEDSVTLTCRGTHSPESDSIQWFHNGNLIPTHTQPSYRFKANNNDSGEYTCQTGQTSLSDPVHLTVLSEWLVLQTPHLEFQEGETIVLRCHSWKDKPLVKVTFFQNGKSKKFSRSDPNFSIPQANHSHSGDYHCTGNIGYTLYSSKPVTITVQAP


Tests used:
[1] = target: T1, human FcγRIIb extracellular domain with …; assay: SPR (BIACORE), antibody captured, FcgR analyte
[2] = target: T2, human FcγRIIIaV extracellular domain with C-terminal His-tag (human, UniProt P08637 17-208); assay: SPR (BIACORE), antibody captured, FcgR analyte
T2 construct: also called human FcgRIIIaV
T2 sequence (P08637 17-208 F176V): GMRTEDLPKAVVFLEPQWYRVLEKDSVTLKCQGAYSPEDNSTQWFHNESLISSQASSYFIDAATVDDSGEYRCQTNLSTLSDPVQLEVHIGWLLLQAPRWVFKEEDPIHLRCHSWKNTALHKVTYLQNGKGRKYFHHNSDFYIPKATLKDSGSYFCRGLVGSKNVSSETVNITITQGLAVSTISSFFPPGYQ

Row | Kd [1] [nM] | Kd [2] [nM] | Binder
1 | 1700 | 8300 | M103205H795-MY392/M103202L889-SK1 (antibody, human IgG1, kappa, Substitutions introduced into M103205H795-SG1, expressed with M103202L889-SK1 as light chain; EU numbering) heavy: QVTLKESGPVLVKPTETLTLTCTVSGIDLSHDDISWVRQAPGKGLEWVGIISYAGSTYYASWAKGRLTISKDTSKNQVVLTMTNMDPVDTATYYCARGVPAYSHGGDLWGQGTLVTVSSASTKGPSVFPLAPSSKSTSGGTAALGCLVKDYFPEPVTVSWNSGALTSGVHTFPAVLQSSGLYSLSSVVTVPSSSLGTQTYICNVNHKPSNTKVDKKVEPKSCDKTHTCPPCPAPELLTGPSVFLFPPKPKDTLMISRTPEVTCVVVDVSDEDPEVKFNWYVDGVEVHNAKTKPREEQYNLTYRVVSVLTVLHQDWLNGKEYKCKVSNKALPKPIEKTISKAKGQPREPQVYTLPPSREEMTKNQVSLTCLVKGFYPSDIAVEWESNGQPENNYKTTPPVLDSDGSFFLYSKLTVDKSRWQQGNVFSCSVMHEALHNHYTQKSLSLSP light: DIVMTQSPATLSLSPGERATLSCTSSQSVYHANWLSWFQQKPGQPPKLLIYWASTLAYGVPSRFSGSGSGTDFTLTISSLQPEDAATYYCAGGYGGGRYAFGQGTKVEIKRTVAAPSVFIFPPSDEQLKSGTASVVCLLNNFYPREAKVQWKVDNALQSGNSQESVTEQDSKDSTYSLSSTLTLSKADYEKHKVYACEVTHQGLSSPVTKSFNRGEC
2 | 1200 | 9000 | M103205H795-MY515/M103202L889-SK1 (antibody, human IgG1, kappa, Substitutions introduced into M103205H795-SG1, expressed with M103202L889-SK1 as light chain; EU numbering) heavy: QVTLKESGPVLVKPTETLTLTCTVSGIDLSHDDISWVRQAPGKGLEWVGIISYAGSTYYASWAKGRLTISKDTSKNQVVLTMTNMDPVDTATYYCARGVPAYSHGGDLWGQGTLVTVSSASTKGPSVFPLAPSSKSTSGGTAALGCLVKDYFPEPVTVSWNSGALTSGVHTFPAVLQSSGLYSLSSVVTVPSSSLGTQTYICNVNHKPSNTKVDKKVEPKSCDKTHTCPPCPAPELLTGPSVFLFPPKPKDTLMISRTPEVTCVVVDVSDEDPEVKFNWYVDGVEVHNAKTKPREELYNLTYRVVSVLTVLHQDWLNGKEYKCKVSNKALPKPIEKTISKAKGQPREPQVYTLPPSREEMTKNQVSLTCLVKGFYPSDIAVEWESNGQPENNYKTTPPVLDSDGSFFLYSKLTVDKSRWQQGNVFSCSVMHEALHNHYTQKSLSLSP light: DIVMTQSPATLSLSPGERATLSCTSSQSVYHANWLSWFQQKPGQPPKLLIYWASTLAYGVPSRFSGSGSGTDFTLTISSLQPEDAATYYCAGGYGGGRYAFGQGTKVEIKRTVAAPSVFIFPPSDEQLKSGTASVVCLLNNFYPREAKVQWKVDNALQSGNSQESVTEQDSKDSTYSLSSTLTLSKADYEKHKVYACEVTHQGLSSPVTKSFNRGEC
3 | 510 | 6700 | M103205H795-MY516/M103202L889-SK1 (antibody, human IgG1, kappa, Substitutions introduced into M103205H795-SG1, expressed with M103202L889-SK1 as light chain; EU numbering) heavy: QVTLKESGPVLVKPTETLTLTCTVSGIDLSHDDISWVRQAPGKGLEWVGIISYAGSTYYASWAKGRLTISKDTSKNQVVLTMTNMDPVDTATYYCARGVPAYSHGGDLWGQGTLVTVSSASTKGPSVFPLAPSSKSTSGGTAALGCLVKDYFPEPVTVSWNSGALTSGVHTFPAVLQSSGLYSLSSVVTVPSSSLGTQTYICNVNHKPSNTKVDKKVEPKSCDKTHTCPPCPAPELLTGPVVFLFPPKPKDTLMISRTPEVTCVVVDVSDEDPEVKFNWYVDGVEVHNAKTKPREELYNLTYRVVSVLTVLHQDWLNGKEYKCKVSNKALPKPIEKTISKAKGQPREPQVYTLPPSREEMTKNQVSLTCLVKGFYPSDIAVEWESNGQPENNYKTTPPVLDSDGSFFLYSKLTVDKSRWQQGNVFSCSVMHEALHNHYTQKSLSLSP light: DIVMTQSPATLSLSPGERATLSCTSSQSVYHANWLSWFQQKPGQPPKLLIYWASTLAYGVPSRFSGSGSGTDFTLTISSLQPEDAATYYCAGGYGGGRYAFGQGTKVEIKRTVAAPSVFIFPPSDEQLKSGTASVVCLLNNFYPREAKVQWKVDNALQSGNSQESVTEQDSKDSTYSLSSTLTLSKADYEKHKVYACEVTHQGLSSPVTKSFNRGEC
4 | 1100 | 5700 | M103205H795-MY522/M103202L889-SK1 (antibody, human IgG1, kappa, Substitutions introduced into M103205H795-SG1, expressed with M103202L889-SK1 as light chain; EU numbering) heavy: QVTLKESGPVLVKPTETLTLTCTVSGIDLSHDDISWVRQAPGKGLEWVGIISYAGSTYYASWAKGRLTISKDTSKNQVVLTMTNMDPVDTATYYCARGVPAYSHGGDLWGQGTLVTVSSASTKGPSVFPLAPSSKSTSGGTAALGCLVKDYFPEPVTVSWNSGALTSGVHTFPAVLQSSGLYSLSSVVTVPSSSLGTQTYICNVNHKPSNTKVDKKVEPKSCDKTHTCPPCPGPELLTGPVVFLFPPKPKDTLMISRTPEVTCVVVDVSDEDPEVKFNWYVDGVEVHNAKTKPREEQYNSTYRVVSVLTVLHQDWLNGKEYKCKVSNKALPKPIEKTISKAKGQPREPQVYTLPPSREEMTKNQVSLTCLVKGFYPSDIAVEWESNGQPENNYKTTPPVLDSDGSFFLYSKLTVDKSRWQQGNVFSCSVMHEALHNHYTQKSLSLSP light: DIVMTQSPATLSLSPGERATLSCTSSQSVYHANWLSWFQQKPGQPPKLLIYWASTLAYGVPSRFSGSGSGTDFTLTISSLQPEDAATYYCAGGYGGGRYAFGQGTKVEIKRTVAAPSVFIFPPSDEQLKSGTASVVCLLNNFYPREAKVQWKVDNALQSGNSQESVTEQDSKDSTYSLSSTLTLSKADYEKHKVYACEVTHQGLSSPVTKSFNRGEC
5 | 1400 | 3500 | M103205H795-MY520/M103202L889-SK1 (antibody, human IgG1, kappa, Substitutions introduced into M103205H795-SG1, expressed with M103202L889-SK1 as light chain; EU numbering) heavy: QVTLKESGPVLVKPTETLTLTCTVSGIDLSHDDISWVRQAPGKGLEWVGIISYAGSTYYASWAKGRLTISKDTSKNQVVLTMTNMDPVDTATYYCARGVPAYSHGGDLWGQGTLVTVSSASTKGPSVFPLAPSSKSTSGGTAALGCLVKDYFPEPVTVSWNSGALTSGVHTFPAVLQSSGLYSLSSVVTVPSSSLGTQTYICNVNHKPSNTKVDKKVEPKSCDKTHTCPPCPADELLTGPVVFLFPPKPKDTLMISRTPEVTCVVVDVSDEDPEVKFNWYVDGVEVHNAKTKPREELYNSTYRVVSVLTVLHQDWLNGKEYKCKVSNKALPKPIEKTISKAKGQPREPQVYTLPPSREEMTKNQVSLTCLVKGFYPSDIAVEWESNGQPENNYKTTPPVLDSDGSFFLYSKLTVDKSRWQQGNVFSCSVMHEALHNHYTQKSLSLSP light: DIVMTQSPATLSLSPGERATLSCTSSQSVYHANWLSWFQQKPGQPPKLLIYWASTLAYGVPSRFSGSGSGTDFTLTISSLQPEDAATYYCAGGYGGGRYAFGQGTKVEIKRTVAAPSVFIFPPSDEQLKSGTASVVCLLNNFYPREAKVQWKVDNALQSGNSQESVTEQDSKDSTYSLSSTLTLSKADYEKHKVYACEVTHQGLSSPVTKSFNRGEC
6 | 2500 | 7800 | M103205H795-MY400/M103202L889-SK1 (antibody, human IgG1, kappa, Substitutions introduced into M103205H795-SG1, expressed with M103202L889-SK1 as light chain; EU numbering) heavy: QVTLKESGPVLVKPTETLTLTCTVSGIDLSHDDISWVRQAPGKGLEWVGIISYAGSTYYASWAKGRLTISKDTSKNQVVLTMTNMDPVDTATYYCARGVPAYSHGGDLWGQGTLVTVSSASTKGPSVFPLAPSSKSTSGGTAALGCLVKDYFPEPVTVSWNSGALTSGVHTFPAVLQSSGLYSLSSVVTVPSSSLGTQTYICNVNHKPSNTKVDKKVEPKSCDKTHTCPPCPAPELLTGPSVFLFPPKPKDTLMISRTPEVTCVVVDVSDEDPEVKFNWYVDGVEVHNAKTKPREEQYNSTYRVVSVLTVLHQDWLNGKEYKCKVSNKALPKEIEKTISKAKGQPREPQVYTLPPSREEMTKNQVSLTCLVKGFYPSDIAVEWESNGQPENNYKTTPPVLDSDGSFFLYSKLTVDKSRWQQGNVFSCSVMHEALHNHYTQKSLSLSP light: DIVMTQSPATLSLSPGERATLSCTSSQSVYHANWLSWFQQKPGQPPKLLIYWASTLAYGVPSRFSGSGSGTDFTLTISSLQPEDAATYYCAGGYGGGRYAFGQGTKVEIKRTVAAPSVFIFPPSDEQLKSGTASVVCLLNNFYPREAKVQWKVDNALQSGNSQESVTEQDSKDSTYSLSSTLTLSKADYEKHKVYACEVTHQGLSSPVTKSFNRGEC
7 | 1500 | 5200 | M103205H795-MY521/M103202L889-SK1 (antibody, human IgG1, kappa, Substitutions introduced into M103205H795-SG1, expressed with M103202L889-SK1 as light chain; EU numbering) heavy: QVTLKESGPVLVKPTETLTLTCTVSGIDLSHDDISWVRQAPGKGLEWVGIISYAGSTYYASWAKGRLTISKDTSKNQVVLTMTNMDPVDTATYYCARGVPAYSHGGDLWGQGTLVTVSSASTKGPSVFPLAPSSKSTSGGTAALGCLVKDYFPEPVTVSWNSGALTSGVHTFPAVLQSSGLYSLSSVVTVPSSSLGTQTYICNVNHKPSNTKVDKKVEPKSCDKTHTCPPCPADELLTGPSVFLFPPKPKDTLMISRTPEVTCVVVDVSDEDPEVKFNWYVDGVEVHNAKTKPREELYNSTYRVVSVLTVLHQDWLNGKEYKCKVSNKALPKPIEKTISKAKGQPREPQVYTLPPSREEMTKNQVSLTCLVKGFYPSDIAVEWESNGQPENNYKTTPPVLDSDGSFFLYSKLTVDKSRWQQGNVFSCSVMHEALHNHYTQKSLSLSP light: DIVMTQSPATLSLSPGERATLSCTSSQSVYHANWLSWFQQKPGQPPKLLIYWASTLAYGVPSRFSGSGSGTDFTLTISSLQPEDAATYYCAGGYGGGRYAFGQGTKVEIKRTVAAPSVFIFPPSDEQLKSGTASVVCLLNNFYPREAKVQWKVDNALQSGNSQESVTEQDSKDSTYSLSSTLTLSKADYEKHKVYACEVTHQGLSSPVTKSFNRGEC
8 | 690 | 8800 | M103205H795-MY514/M103202L889-SK1 (antibody, human IgG1, kappa, Substitutions introduced into M103205H795-SG1, expressed with M103202L889-SK1 as light chain; EU numbering) heavy: QVTLKESGPVLVKPTETLTLTCTVSGIDLSHDDISWVRQAPGKGLEWVGIISYAGSTYYASWAKGRLTISKDTSKNQVVLTMTNMDPVDTATYYCARGVPAYSHGGDLWGQGTLVTVSSASTKGPSVFPLAPSSKSTSGGTAALGCLVKDYFPEPVTVSWNSGALTSGVHTFPAVLQSSGLYSLSSVVTVPSSSLGTQTYICNVNHKPSNTKVDKKVEPKSCDKTHTCPPCPAPELLTGPVVFLFPPKPKDTLMISRTPEVTCVVVDVSDEDPEVKFNWYVDGVEVHNAKTKPREEQYNLTYRVVSVLTVLHQDWLNGKEYKCKVSNKALPKPIEKTISKAKGQPREPQVYTLPPSREEMTKNQVSLTCLVKGFYPSDIAVEWESNGQPENNYKTTPPVLDSDGSFFLYSKLTVDKSRWQQGNVFSCSVMHEALHNHYTQKSLSLSP light: DIVMTQSPATLSLSPGERATLSCTSSQSVYHANWLSWFQQKPGQPPKLLIYWASTLAYGVPSRFSGSGSGTDFTLTISSLQPEDAATYYCAGGYGGGRYAFGQGTKVEIKRTVAAPSVFIFPPSDEQLKSGTASVVCLLNNFYPREAKVQWKVDNALQSGNSQESVTEQDSKDSTYSLSSTLTLSKADYEKHKVYACEVTHQGLSSPVTKSFNRGEC
